According to publication PMC9482650, “Quantitative fragmentomics allow affinity mapping of interactomes” (Nature Communications, 2022):

T1: PCLO, Q9Y6V0
T1 sequence (Q9Y6V0 4491-4600, limits assumed, looked up): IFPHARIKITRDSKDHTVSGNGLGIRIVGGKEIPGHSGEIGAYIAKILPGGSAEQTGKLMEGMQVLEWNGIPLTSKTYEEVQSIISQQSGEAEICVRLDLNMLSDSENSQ

T2: SNTA1, Q13424
T2 sequence (Q13424 82-180, limits assumed, looked up): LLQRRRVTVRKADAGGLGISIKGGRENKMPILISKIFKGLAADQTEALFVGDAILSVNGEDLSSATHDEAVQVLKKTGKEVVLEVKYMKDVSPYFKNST

T3: CARD11, Q9BXL7
T3 sequence (Q9BXL7 662-765, limits assumed, looked up): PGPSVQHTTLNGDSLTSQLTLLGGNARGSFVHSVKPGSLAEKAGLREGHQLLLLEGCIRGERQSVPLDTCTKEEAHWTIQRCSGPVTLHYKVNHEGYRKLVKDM

T4: MPP7, Q5T2T1
T4 sequence (Q5T2T1 134-230, limits assumed, looked up): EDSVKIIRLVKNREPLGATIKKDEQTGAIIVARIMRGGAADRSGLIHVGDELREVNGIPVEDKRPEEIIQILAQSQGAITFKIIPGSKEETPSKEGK

T5: SNTG1, Q9NSN8
T5 sequence (Q9NSN8 52-150, limits assumed, looked up): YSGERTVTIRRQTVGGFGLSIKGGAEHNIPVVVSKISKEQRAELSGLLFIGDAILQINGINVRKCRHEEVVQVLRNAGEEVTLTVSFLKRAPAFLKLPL

T6: SNTG2, Q9NY99
T6 sequence (Q9NY99 68-166, limits assumed, looked up): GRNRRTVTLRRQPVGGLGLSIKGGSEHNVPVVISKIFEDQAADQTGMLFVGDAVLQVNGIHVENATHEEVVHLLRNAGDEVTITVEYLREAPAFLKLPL

T7: LNX2_3, Q8N448
T7 sequence (Q8N448 463-564, limits assumed, looked up): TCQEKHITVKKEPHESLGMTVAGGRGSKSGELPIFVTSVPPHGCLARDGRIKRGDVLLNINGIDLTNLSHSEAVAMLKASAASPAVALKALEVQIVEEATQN

T8: HTRA3, P83110
T8 sequence (P83110 354-453, limits assumed, looked up): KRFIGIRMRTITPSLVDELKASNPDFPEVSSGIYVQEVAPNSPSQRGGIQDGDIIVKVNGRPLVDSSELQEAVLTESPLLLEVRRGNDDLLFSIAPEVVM

T9: HTRA4, P83105
T9 sequence (P83105 378-476, limits assumed, looked up): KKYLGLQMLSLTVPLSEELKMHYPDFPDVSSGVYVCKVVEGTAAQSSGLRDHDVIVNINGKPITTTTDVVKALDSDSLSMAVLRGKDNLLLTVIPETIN

T10: SYNJ2BP, P57105
T10 sequence (P57105 8-110, limits assumed, looked up): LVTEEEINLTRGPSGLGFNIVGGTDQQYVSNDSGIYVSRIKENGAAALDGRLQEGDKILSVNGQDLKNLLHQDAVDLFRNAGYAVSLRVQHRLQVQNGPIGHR

T11: PARD3B_1, Q8TEW8
T11 sequence (Q8TEW8 196-299, limits assumed, looked up): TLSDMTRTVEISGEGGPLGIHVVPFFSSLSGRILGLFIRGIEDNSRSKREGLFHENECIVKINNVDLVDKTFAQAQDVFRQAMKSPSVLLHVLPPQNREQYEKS


How the values were obtained:
Test in all cases: holdup assay
Set-up in all cases: key: below the threshold = too weak to quantify, mostly under pKd 3.1 to 4
Settings in all cases: plain residues with an end cap or a label only (N-terminal biotin on a linker: ado-ado)
NHERF2_2, Q15599 = target: NHERF2_2, Q15599
Sequence of NHERF2_2, Q15599 (Q15599 142-238): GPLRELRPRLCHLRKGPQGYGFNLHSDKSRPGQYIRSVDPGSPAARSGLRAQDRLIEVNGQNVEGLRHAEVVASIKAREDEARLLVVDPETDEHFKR

TJP1_2, Q07157 = target: TJP1_2, Q07157
Sequence of TJP1_2, Q07157 (Q07157 181-274): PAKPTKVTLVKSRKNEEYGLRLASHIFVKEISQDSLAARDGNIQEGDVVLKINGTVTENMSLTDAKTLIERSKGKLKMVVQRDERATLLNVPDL

AHNAK1, Q09666 = target: AHNAK1, Q09666
IL16_1, Q14005 = target: IL16_1, Q14005
Sequence of IL16_1, Q14005 (Q14005 210-306): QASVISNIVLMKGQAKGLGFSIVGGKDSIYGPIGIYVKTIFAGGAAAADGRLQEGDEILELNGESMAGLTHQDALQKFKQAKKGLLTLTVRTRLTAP

NOS1, P29475 = target: NOS1, P29475
Sequence of NOS1, P29475 (P29475 9-101): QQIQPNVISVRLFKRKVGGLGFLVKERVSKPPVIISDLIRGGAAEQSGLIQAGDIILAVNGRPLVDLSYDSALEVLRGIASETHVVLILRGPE

PCLO, Q9Y6V0 = target: T1, PCLO, Q9Y6V0
NHERF4_1, Q86UT5-2 = target: NHERF4_1, Q86UT5-2
Sequence of NHERF4_1, Q86UT5-2 (Q86UT5 other isoform, or with tags, fused parts or gaps): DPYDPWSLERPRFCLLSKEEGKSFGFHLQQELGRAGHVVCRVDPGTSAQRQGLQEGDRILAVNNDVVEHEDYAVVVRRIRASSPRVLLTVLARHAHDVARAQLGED

SNTA1, Q13424 = target: T2, SNTA1, Q13424
CARD11, Q9BXL7 = target: T3, CARD11, Q9BXL7
DLG2_3, Q15700 = target: DLG2_3, Q15700
ARHGEF12, Q9NZN5-2 = target: ARHGEF12, Q9NZN5-2
Sequence of ARHGEF12, Q9NZN5-2 (Q9NZN5 other isoform, or with tags, fused parts or gaps): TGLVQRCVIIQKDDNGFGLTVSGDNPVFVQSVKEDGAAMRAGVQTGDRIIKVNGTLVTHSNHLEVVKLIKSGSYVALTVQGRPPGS

MPP7, Q5T2T1 = target: T4, MPP7, Q5T2T1
SNTG1, Q9NSN8 = target: T5, SNTG1, Q9NSN8
Inadl_9, Q8NI35 = target: Inadl_9, Q8NI35
Sequence of Inadl_9, Q8NI35 (Q8NI35 1530-1615): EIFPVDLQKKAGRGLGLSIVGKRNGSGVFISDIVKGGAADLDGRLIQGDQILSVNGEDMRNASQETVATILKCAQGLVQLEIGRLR

SNTG2, Q9NY99 = target: T6, SNTG2, Q9NY99
Inadl_4, Q8NI35 = target: Inadl_4, Q8NI35
Sequence of Inadl_4, Q8NI35 (Q8NI35 547-651): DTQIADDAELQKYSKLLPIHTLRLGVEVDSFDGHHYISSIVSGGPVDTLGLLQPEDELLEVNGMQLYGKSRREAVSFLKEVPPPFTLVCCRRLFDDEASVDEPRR

LNX2_3, Q8N448 = target: T7, LNX2_3, Q8N448
Inadl_3, Q8NI35 = target: Inadl_3, Q8NI35
Sequence of Inadl_3, Q8NI35 (Q8NI35 359-469): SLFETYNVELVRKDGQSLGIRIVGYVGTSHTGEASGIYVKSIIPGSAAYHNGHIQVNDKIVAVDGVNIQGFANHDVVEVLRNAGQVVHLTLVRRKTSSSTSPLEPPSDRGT

MAGI2_5, Q86UL8 = target: MAGI2_5, Q86UL8
Sequence of MAGI2_5, Q86UL8 (Q86UL8 915-1017): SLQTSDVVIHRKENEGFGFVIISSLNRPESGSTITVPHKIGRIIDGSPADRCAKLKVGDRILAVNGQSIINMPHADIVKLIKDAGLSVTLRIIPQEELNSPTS

SCRIB_2, Q14160 = target: SCRIB_2, Q14160
Sequence of SCRIB_2, Q14160 (Q14160 857-960): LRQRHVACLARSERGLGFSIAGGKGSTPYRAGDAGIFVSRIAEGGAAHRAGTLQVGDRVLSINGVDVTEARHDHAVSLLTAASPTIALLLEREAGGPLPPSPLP

MAST1, Q9Y2H9 = target: MAST1, Q9Y2H9
Sequence of MAST1, Q9Y2H9 (Q9Y2H9 962-1065): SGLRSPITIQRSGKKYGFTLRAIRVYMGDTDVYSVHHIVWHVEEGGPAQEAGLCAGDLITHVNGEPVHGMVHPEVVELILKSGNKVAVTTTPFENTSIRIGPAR

HTRA3, P83110 = target: T8, HTRA3, P83110
HTRA4, P83105 = target: T9, HTRA4, P83105
SYNJ2BP, P57105 = target: T10, SYNJ2BP, P57105
PARD3B_1, Q8TEW8 = target: T11, PARD3B_1, Q8TEW8
PARD3_3, Q8TEW0 = target: PARD3_3, Q8TEW0
Sequence of PARD3_3, Q8TEW0 (Q8TEW0 582-685): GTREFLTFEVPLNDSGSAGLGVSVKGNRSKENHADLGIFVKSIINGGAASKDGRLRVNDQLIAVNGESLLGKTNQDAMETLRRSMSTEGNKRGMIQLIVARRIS

Binder | pKd (NHERF2_2, Q15599) | pKd (TJP1_2, Q07157) | pKd (AHNAK1, Q09666) | pKd (IL16_1, Q14005) | pKd (NOS1, P29475) | pKd (PCLO, Q9Y6V0) | pKd (NHERF4_1, Q86UT5-2) | pKd (SNTA1, Q13424) | pKd (CARD11, Q9BXL7) | pKd (ARHGEF12, Q9NZN5-2) | pKd (MPP7, Q5T2T1) | pKd (SNTG1, Q9NSN8) | pKd (Inadl_9, Q8NI35) | pKd (SNTG2, Q9NY99) | pKd (Inadl_4, Q8NI35) | pKd (LNX2_3, Q8N448) | pKd (Inadl_3, Q8NI35) | pKd (MAGI2_5, Q86UL8) | pKd (SCRIB_2, Q14160) | pKd (MAST1, Q9Y2H9) | other results
NTALVESEDL [PALLS, Q8WX93;Q8WX93-1] | 4.64 | below the threshold | below the threshold | below the threshold | below the threshold | below the threshold | below the threshold | below the threshold | below the threshold | below the threshold | below the threshold | below the threshold | below the threshold | below the threshold | below the threshold | below the threshold | below the threshold | below the threshold | below the threshold | 4.56 | pKd (DLG2_3, Q15700): below the threshold; pKd (HTRA3, P83110): below the threshold; pKd (HTRA4, P83105): below the threshold
PAALPESTHM [SLC9A3, P48764] | 4.94 | below the threshold | below the threshold | below the threshold | below the threshold | below the threshold | 3.75 | below the threshold | below the threshold | below the threshold | below the threshold | below the threshold | below the threshold | below the threshold | below the threshold | below the threshold | below the threshold | below the threshold | below the threshold | 4.63 | pKd (SYNJ2BP, P57105): below the threshold; pKd (PARD3B_1, Q8TEW8): 3.6; pKd (DLG2_3, Q15700): below the threshold; pKd (PARD3_3, Q8TEW0): below the threshold; pKd (HTRA3, P83110): below the threshold; pKd (HTRA4, P83105): 3.9
VKQYADVEGF [HNRNPK, P61978;P61978-2] | below the threshold | below the threshold | below the threshold | below the threshold | below the threshold | below the threshold | 3.99 | below the threshold | below the threshold | below the threshold | below the threshold | below the threshold | below the threshold | below the threshold | below the threshold | below the threshold | below the threshold | below the threshold | below the threshold | below the threshold | pKd (SYNJ2BP, P57105): below the threshold; pKd (PARD3B_1, Q8TEW8): below the threshold; pKd (PARD3_3, Q8TEW0): below the threshold; pKd (HTRA3, P83110): below the threshold; pKd (HTRA4, P83105): below the threshold
SKQFDKNAYV [CLDN10, P78369] | below the threshold | 3.61 | below the threshold | below the threshold | 3.61 | below the threshold | below the threshold | 3.55 | below the threshold | 3.66 | below the threshold | below the threshold | below the threshold | below the threshold | below the threshold | below the threshold | below the threshold | below the threshold | below the threshold | below the threshold | pKd (SYNJ2BP, P57105): below the threshold; pKd (PARD3B_1, Q8TEW8): 3.97; pKd (DLG2_3, Q15700): below the threshold; pKd (PARD3_3, Q8TEW0): below the threshold; pKd (HTRA3, P83110): 4.06; pKd (HTRA4, P83105): below the threshold
